Experimental data taken from patent US20100267609.

Columns and labels:
[1] = target: T1, substrate EEISEVNLAAEF
T1 chain: EEISEVNLAAEF

[2] = target: T2, substrate EVNLAVEFWHDR
T2 chain: EVNLAVEFWHDR

[3] = target: T3, substrate RWHHEVNLAAEF
T3 chain: RWHHEVNLAAEF

B1: memapsin 2 (spontaneously activated promemapsin 2-T1; amino acids 43-456 and 45-456 of SEQ ID NO: 8) (protein)
chain: LRLPRETDEEPEEPGRRGSFVEMVDNLRGKSGQGYYVEMTVGSPPQTLNILVDTGSSNFAVGAAPHPFLHRYYQRQLSSTYRDLRKGVYVPYTQGKWEGELGTDLVSIPHGPNVTVRANIAAITESDKFFINGSNWEGILGLAYAEIARPDDSLEPFFDSLVKQTHVPNLFSLGLCGAGFPLNQSEVLASVGGSMIIGGIDHSLYTGSLWYTPIRREWYYEVIIVRVEINGQDLKMDCKEYNYDKSIVDSGTTNLRLPKKVFEAAVKSIKAASSTEKFPDGFWLGEQLVCWQAGTTPWNIFPVISLYLMGEVTNQSFRITILPQQYLRPVEDVATSQDDCYKFAISQSSTGTVMGAVIMEGFYVVFDRARKRIGFAVSACHVHDEFRTAAVEGPFVTLDMEDCGYNIPQTDEST
rate of catalysis, competitive cleavage of a mixture of three peptides (MALDI-TOF) [1]: statistically identical rates of catalysis for the upstream EEIS (SEQ ID NO: 52) and the downstream WHDR (SEQ ID NO: 29) sequence additions
Km [2]: Km of 83±8.9 mM
rate of catalysis, competitive cleavage of a mixture of three peptides (MALDI-TOF) [3]: the RWHH (SEQ ID NO: 53) sequence addition still demonstrated a 60-fold decrease in catalytic rate
rate of catalysis, competitive cleavage of a mixture of two peptides (MALDI-TOF), against EVNLAAEFWHDR [3]: a 60-fold decrease in the rate of catalysis for the upstream RWHH (SEQ ID NO: 53) sequence addition when compared to the downstream WHDR (SEQ ID NO: 29) sequence addition
